Results on eight molecules are retold here after patent publication US4793986A, “Macromolecular platinum antitumor compounds” (Johnson Matthey, Inc., priority 1987, dated 1988).

The test system of one series is HCT-116. The experiment in a line: In-vitro cytotoxicity testing, HCT-116. The format is cell-based. The settings on record: HCT-116 (human colon). The source says: (§1) IN-VITRO CY[…]^1
(§2) IC50 (ug/ml)/Active Dilution

A further series concerns B16-F10. The experiment in a line: In-vitro cytotoxicity testing, B16-F10. Format: cell-based. The settings on record: B16-F10 (murine melanoma).
From the text: as §1, §2
B16F10 -- Murine melanoma

A further series has as its system SW1271. Nature of the series: In-vitro cytotoxicity testing, SW1271. Format: cell-based. The settings on record: SW1271 (human lung).
From the text: as §1, §2

A further series deals with L1210. Nature of the series: Lifespan summary, L1210. Format: in vivo, mice. As to conditions: i.p.; for AWG D.5: day 5.
The subject of the next series is L1210 Leukemia. Nature of the series: Effect on L1210 Leukemia. Format: in vivo, mice. The settings on record: i.p.; for AWG D.5: day 5.
A further series can be described thus: Pt release. The format is physicochemical. Set-up: unit not given here.
The subject of another series is A549. Nature of the series: In-vitro cytotoxicity testing, A549. The format is cell-based. The settings on record: A549 (human lung).
From the text: IN-VITRO CYTOTOXICITY TESTING^1
as §2

For series [1] the following is noted: cited from earlier work.
Where [2] appears, read: 160 mg/kg/dose, Q01DX1;1, H2O + tween 80.
The mark [3] stands for this setting: 240 mg/kg/dose, Q01DX1;1, H2O + tween 80.
Where [4] appears, read: 320 mg/kg/dose, Q01DX1;1, H2O + tween 80.
Setting [5] is: 400 mg/kg/dose, Q01DX1;1, H2O + tween 80.
The mark [6] stands for this setting: 80 mg/kg/dose, Q01DX1;1, H2O + tween 80.
Setting [7] is: 120 mg/kg/dose, Q01DX1;1, H2O + tween 80.
The mark [8] stands for this setting: pH 5.80, 1 h, 0.1M phosphate buffer.
Where [9] appears, read: pH 5.80, 24 h, 0.1M phosphate buffer.
Where [10] appears, read: pH 5.80, 48 h, 0.1M phosphate buffer.
Where [11] appears, read: pH 7.00, 1 h, 0.1M phosphate buffer.
[12] abbreviates: pH 7.00, 24 h, 0.1M phosphate buffer.
The mark [13] stands for this setting: pH 7.00, 48 h, 0.1M phosphate buffer.
The mark [14] stands for this setting: pH 8.00, 1 h, 0.1M phosphate buffer.
Setting [15] is: pH 8.00, 24 h, 0.1M phosphate buffer.
Setting [16] is: pH 8.00, 48 h, 0.1M phosphate buffer.
Where [17] appears, read: 4 mg/kg/dose, Q01DX1;1, vehicle BS.
Where [18] appears, read: 6 mg/kg/dose, Q01DX1;1, vehicle BS.
[19] abbreviates: 8 mg/kg/dose, Q01DX1;1, vehicle BS.
The mark [20] stands for this setting: 10 mg/kg/dose, Q01DX1;1, vehicle BS.

With “Pt-Malonato Dextran (Method B) [Example 2]”, the IC50 (usually the midpoint of a concentration-inhibition curve) with HCT-116 is 430 µg/mL; in the series on B16-F10 it was 332 µg/mL; with SW1271 it was more than 500 µg/mL. Moreover, the “% T/C” value in the series with L1210 (setting [2]) is listed as 107%; in the series with L1210 (setting [3]), 121%; in the series with L1210 (setting [4]), 114%; in the series on L1210 (setting [5]), 143%; in the series on L1210 Leukemia (setting [6]), 100%; in the series on L1210 Leukemia (setting [7]) it was 100%. Besides, the “% T/C” value in the series on L1210 Leukemia (setting [2]) was found to be 107%. In addition, the “Med. S.T.” value is 7.5 in the series on L1210 (setting [2]); 8.5 with L1210 (setting [3]); 8.0 with L1210 (setting [4]); 10.0 with L1210 (setting [5]); 7.0 in the series with L1210 Leukemia (setting [6]); 7.0 in the series on L1210 Leukemia (setting [7]). Also, the “Med. S.T.” value with L1210 Leukemia (setting [2]) is listed as 7.5.

On to Pt-Malonato Xylan [Example 9], for which the Pt release came out at 3.1 in “Pt release” (setting [8]); 22.6 in the series “Pt release” (setting [9]); 29.8 in “Pt release” (setting [10]); 32.8 in “Pt release” (pH 5.80, 72 h, 0.1M phosphate buffer); 41.9 in the series “Pt release” (pH 5.80, 144 h, 0.1M phosphate buffer); 2.1 in the series “Pt release” (setting [11]). For the same molecule, the Pt release in the series “Pt release” (setting [12]) worked out at 17.9; in “Pt release” (setting [13]), 23.7; in “Pt release” (pH 7.00, 72 h, 0.1M phosphate buffer), 27.5; in “Pt release” (pH 7.00, 144 h, 0.1M phosphate buffer) it was 40.9; in “Pt release” (setting [14]), 1.7; in “Pt release” (setting [15]), 18.9. The Pt release was found to be 25.4 in the series “Pt release” (setting [16]); 28.2 in “Pt release” (pH 8.00, 72 h, 0.1M phosphate buffer); 35.8 in “Pt release” (pH 8.00, 144 h, 0.1M phosphate buffer).

As to “Pt-Malonato Dextran (Method A) [Example 1]”, the IC50 with HCT-116 was more than 500 µg/mL; with B16-F10, 426 µg/mL; in the series with A549, more than 500 µg/mL; in the series with SW1271, 408 µg/mL. The Pt release stood at 0.6 in “Pt release” (pH 5.60, 2 h); 4.3 in “Pt release” (pH 5.60, 24 h); 6.8 in the series “Pt release” (pH 5.60, 48 h); 8.2 in “Pt release” (pH 5.60, 72 h); 0.5 in the series “Pt release” (pH 6.80, 2 h); 6.6 in the series “Pt release” (pH 6.80, 24 h). Moreover, the Pt release in the series “Pt release” (pH 6.80, 48 h) was found to be 10.2; in “Pt release” (pH 6.80, 72 h) it was 13.3; in “Pt release” (pH 8.30, 2 h), 1.3; in the series “Pt release” (pH 8.30, 24 h), 7.2; in “Pt release” (pH 8.30, 48 h) it was 10.3; in “Pt release” (pH 8.30, 72 h), 13.8.

As for Pt-Isoserinato Dextran [Example 5], the Pt release in the series “Pt release” (setting [8]) is listed as 9.5; in the series “Pt release” (setting [9]), 72.5; in the series “Pt release” (setting [10]) it was 88.5; in the series “Pt release” (pH 5.80, 120 h, 0.1M phosphate buffer), 98.7; in the series “Pt release” (setting [11]), 8.8; in “Pt release” (setting [12]), 61.1. Moreover, the Pt release is given as 76.3 in “Pt release” (setting [13]); 89.3 in “Pt release” (pH 7.00, 120 h, 0.1M phosphate buffer); 8.8 in the series “Pt release” (setting [14]); 55.7 in the series “Pt release” (setting [15]); 66.9 in the series “Pt release” (setting [16]); 76.2 in “Pt release” (pH 8.00, 120 h, 0.1M phosphate buffer).

As for “Pt-malonato dextran [Pt-malonato dextran of Example 3]”, the Pt release turned out to be 0.6 in “Pt release” (pH 5.50, 1 h); 5.2 in “Pt release” (pH 5.50, 16 h); 6.4 in “Pt release” (pH 5.50, 40 h); 7.6 in “Pt release” (pH 5.50, 64 h); 0.6 in “Pt release” (pH 7.10, 1 h); 4.2 in the series “Pt release” (pH 7.10, 16 h). The Pt release in “Pt release” (pH 7.10, 40 h) is 4.9; in the series “Pt release” (pH 7.10, 64 h), 6.1; in the series “Pt release” (pH 8.20, 1 h), 0.7; in “Pt release” (pH 8.20, 16 h), 4.2; in the series “Pt release” (pH 8.20, 40 h) it was 5.1; in the series “Pt release” (pH 8.20, 64 h), 6.4.

In the case of `N.N.O=C([O-])C1(C(=O)[O-])CCC1.[Pt+2]` [carboplatin], the nephrotoxicity result in series [1] (carboplatin, relative to cisplatin) is recorded as “decreased nephrotoxicity”.

With `N.N.[Cl][Pt][Cl]` [Cisplatin, cis-diamino dichloroplatinum(II)], the nausea and vomiting entry in series [1] (cisplatin as a drug) is “nausea and vomiting which cause extreme discomfort for the patient”. The “% T/C” value in the series on L1210 (setting [17]) worked out at 129%; with L1210 (setting [18]) it was 157%; in the series with L1210 (setting [19]), 171%; with L1210 (setting [20]), 171%; in the series on L1210 Leukemia (setting [17]), 129%; in the series with L1210 Leukemia (setting [18]), 157%. For the same molecule, the “% T/C” value turned out to be 136% in the series with L1210 Leukemia (setting [19]) and 171% with L1210 Leukemia (setting [20]). Moreover, the “Med. S.T.” value is listed as 9.0 in the series on L1210 (setting [17]); 11.0 in the series with L1210 (setting [18]); 12.0 in the series with L1210 (setting [19]); 12.0 in the series on L1210 (setting [20]); 9.0 in the series on L1210 Leukemia (setting [17]); 11.0 with L1210 Leukemia (setting [18]). Also, the “Med. S.T.” value amounted to 9.5 with L1210 Leukemia (setting [19]) and 12.0 in the series with L1210 Leukemia (setting [20]). Also, the “AWG D.5” value is given as -0.7 Gm in the series on L1210 (setting [17]); -2.1 Gm in the series on L1210 (setting [18]); -2.8 Gm in the series on L1210 (setting [19]); -3.3 Gm in the series with L1210 (setting [20]); 0.2 Gm with L1210 Leukemia (setting [17]); -0.9 Gm in the series on L1210 Leukemia (setting [18]). Also, the “AWG D.5” value was -1.4 Gm with L1210 Leukemia (setting [19]) and -2.4 Gm in the series on L1210 Leukemia (setting [20]).

As to Pt-Malonato Inulin [Example 7], the Pt release stood at 4.7 in the series “Pt release” (pH 5.42, 1 h); 18.1 in “Pt release” (pH 5.42, 24 h); 20.5 in “Pt release” (pH 5.42, 48 h); 26.2 in “Pt release” (pH 5.42, 72 h); 27.5 in “Pt release” (pH 5.42, 144 h); 3.1 in “Pt release” (pH 6.76, 1 h). In addition, the Pt release amounted to 15.2 in the series “Pt release” (pH 6.76, 24 h); 18.3 in the series “Pt release” (pH 6.76, 48 h); 20.0 in the series “Pt release” (pH 6.76, 72 h); 22.7 in the series “Pt release” (pH 6.76, 144 h); 4.9 in the series “Pt release” (pH 7.86, 1 h); 17.8 in “Pt release” (pH 7.86, 24 h). For the same molecule, the Pt release worked out at 21.0 in the series “Pt release” (pH 7.86, 48 h); 21.9 in the series “Pt release” (pH 7.86, 72 h); 28.8 in “Pt release” (pH 7.86, 144 h).
